# Test results: patent US20240209334A1, “SMALL-MOLECULE-ACTIVATED GLYCAN MODIFYING ENZYMES AND USES THEREOF” (President and Fellows of Harvard College, priority 2022, published 2024)
# B1: C181_D174N: catalytically dead mutant (D174N) of OGA-intein(C181) (protein)
# chain: MEQKLISEEDLAIAMVQKESQATLEERESELSSNPAASAGASLEPPAAPAPGEDNPAGAGGAAVAGAAGGARRFLCGVVEGFYGRPWVMEQRKELFRRLQKWELNTYLYAPKDDYKHRMFWREMYSVEEAEQLMTLISAAREYEIEFIYAISPGLDITFSNPKEVSTLKRKLDQVSQFGCRSFALLFNDIDHNMCLAEGTRIFDPVTGTTHRIEDVVDGRKPIHVVAAAKDGTLLARPVVSWFDQGTRDVIGLRIAGGAIVWATPDHKVLTEYGWRAAGELRKGDRVAGPGGSGNSLALSLTADQMVSALLDAEPPILYSEYDPTSPFSEASMMGLLTNLADRELVHMINWAKRVPGFVDLTLHDQAHLLERAWLEILMIGLVWRSMEHPGKLLFAPNLLLDRNQGKCVEGMVEIFDMLLATSSRFRMMNLQGEEFVCLKSIILLNSGVYTFLSSTLKSLEEKDHIHRALDKITDTLIHLMAKAGLTLQQQHQRLAQLLLILSHIRHMSNKGMEHLYSMKYKNVVPLYDLLLEMLDAHRLHAGGSGASRVQAFADALDDKFLHDMLAEGLRYSVIREVLPTRRARTFDLEVEELHTLVAEGVVVHNCAADKEVFSSFAHAQVSITNEIYQYLGEPETFLFCPTEYCGTFCYPNVSQSPYLRTVGEKLLPGIEVLWTGPKVVSKEIPVESIEEVSKIIKRAPVIWDNIHANDYDQKRLFLGPYKGRSTELIPRLKGVLTNPNCEFEANYVAIHTLATWYKSNMNGVRKDVVMTDSEDSTVSIQIKLENEGSDEDIETDVLYSPQMALKLALTEWLQEFGVPHQYSSRGSGSGSGSGSGSGSGEKPLYTAEPVTLEDLQLLADLFYLPYEHGPKGAQMLREFQWLRANSSVVSVNCKGKDSEKIEEWRSRAAKFEEMCGLVMGMFTRLSNCANRTILYDMYSYVWDIKSIMSMVKSFVQWLGCRSHSSAQFLIGDQEPWAFRGGLAGEFQRLLPIDGANDLFFQPP
# B2: C181-NLS: OGA-intein(C181) appended to a nuclear-localization sequence (protein)
# chain: MEQKLISEEDLAIAMVQKESQATLEERESELSSNPAASAGASLEPPAAPAPGEDNPAGAGGAAVAGAAGGARRFLCGVVEGFYGRPWVMEQRKELFRRLQKWELNTYLYAPKDDYKHRMFWREMYSVEEAEQLMTLISAAREYEIEFIYAISPGLDITFSNPKEVSTLKRKLDQVSQFGCRSFALLFDDIDHNMCLAEGTRIFDPVTGTTHRIEDVVDGRKPIHVVAAAKDGTLLARPVVSWFDQGTRDVIGLRIAGGAIVWATPDHKVLTEYGWRAAGELRKGDRVAGPGGSGNSLALSLTADQMVSALLDAEPPILYSEYDPTSPFSEASMMGLLTNLADRELVHMINWAKRVPGFVDLTLHDQAHLLERAWLEILMIGLVWRSMEHPGKLLFAPNLLLDRNQGKCVEGMVEIFDMLLATSSRFRMMNLQGEEFVCLKSIILLNSGVYTFLSSTLKSLEEKDHIHRALDKITDTLIHLMAKAGLTLQQQHQRLAQLLLILSHIRHMSNKGMEHLYSMKYKNVVPLYDLLLEMLDAHRLHAGGSGASRVQAFADALDDKFLHDMLAEGLRYSVIREVLPTRRARTFDLEVEELHTLVAEGVVVHNCAADKEVFSSFAHAQVSITNEIYQYLGEPETFLFCPTEYCGTFCYPNVSQSPYLRTVGEKLLPGIEVLWTGPKVVSKEIPVESIEEVSKIIKRAPVIWDNIHANDYDQKRLFLGPYKGRSTELIPRLKGVLTNPNCEFEANYVAIHTLATWYKSNMNGVRKDVVMTDSEDSTVSIQIKLENEGSDEDIETDVLYSPQMALKLALTEWLQEFGVPHQYSSRGSGSGSGSGSGSGSGEKPLYTAEPVTLEDLQLLADLFYLPYEHGPKGAQMLREFQWLRANSSVVSVNCKGKDSEKIEEWRSRAAKFEEMCGLVMGMFTRLSNCANRTILYDMYSYVWDIKSIMSMVKSFVQWLGCRSHSSAQFLIGDQEPWAFRGGLAGEFQRLLPIDGANDLFFQPPKRPAATKKAGQAKKKK
# B3: C181-NES: OGA-intein(C181) appended to a nuclear-export sequence (protein)
# chain: MEQKLISEEDLAIAMVQKESQATLEERESELSSNPAASAGASLEPPAAPAPGEDNPAGAGGAAVAGAAGGARRFLCGVVEGFYGRPWVMEQRKELFRRLQKWELNTYLYAPKDDYKHRMFWREMYSVEEAEQLMTLISAAREYEIEFIYAISPGLDITFSNPKEVSTLKRKLDQVSQFGCRSFALLFDDIDHNMCLAEGTRIFDPVTGTTHRIEDVVDGRKPIHVVAAAKDGTLLARPVVSWFDQGTRDVIGLRIAGGAIVWATPDHKVLTEYGWRAAGELRKGDRVAGPGGSGNSLALSLTADQMVSALLDAEPPILYSEYDPTSPFSEASMMGLLTNLADRELVHMINWAKRVPGFVDLTLHDQAHLLERAWLEILMIGLVWRSMEHPGKLLFAPNLLLDRNQGKCVEGMVEIFDMLLATSSRFRMMNLQGEEFVCLKSIILLNSGVYTFLSSTLKSLEEKDHIHRALDKITDTLIHLMAKAGLTLQQQHQRLAQLLLILSHIRHMSNKGMEHLYSMKYKNVVPLYDLLLEMLDAHRLHAGGSGASRVQAFADALDDKFLHDMLAEGLRYSVIREVLPTRRARTFDLEVEELHTLVAEGVVVHNCAADKEVFSSFAHAQVSITNEIYQYLGEPETFLFCPTEYCGTFCYPNVSQSPYLRTVGEKLLPGIEVLWTGPKVVSKEIPVESIEEVSKIIKRAPVIWDNIHANDYDQKRLFLGPYKGRSTELIPRLKGVLTNPNCEFEANYVAIHTLATWYKSNMNGVRKDVVMTDSEDSTVSIQIKLENEGSDEDIETDVLYSPQMALKLALTEWLQEFGVPHQYSSRGSGSGSGSGSGSGSGEKPLYTAEPVTLEDLQLLADLFYLPYEHGPKGAQMLREFQWLRANSSVVSVNCKGKDSEKIEEWRSRAAKFEEMCGLVMGMFTRLSNCANRTILYDMYSYVWDIKSIMSMVKSFVQWLGCRSHSSAQFLIGDQEPWAFRGGLAGEFQRLLPIDGANDLFFQPPLALKLAGLDIN
# Assays:
# [1] = system: global O-GlcNAc level in MCF-7 cells; assay: Immunoblot of global O-GlcNAc level and splicing in MCF-7 stable cell lines; type: cell-based, human; conditions: MCF-7 cells stably expressing the variant
# Source text: In addition to serving as an activator for intein splicing, 4-HT is also known as the active metabolite of tamoxifen, an FDA-approved drug for treating breast cancer patients. Breast cancer cells also have elevated OGT expression (39) and decreased levels of OGA (40, 41), resulting in elevated O-GlcNAcylation in the proteome. OGT is usually required for tumor growth and metastasis (39), and low OGA expression is correlated with poor survival in breast cancer patients (FIG. 13). The ER positive breast cancer-derived MCF-7 cell line is sensitive to tamoxifen and 4-HT, resulting in suppression of cell proliferation, yet drug resistance occurs after long-term treatment (42). Previous studies also show evidence that upregulation of O-GlcNAcylation protects MCF-7 cells from tamoxifen-induced cell death (43). To determine if reduction of O-GlcNAc sensitized MCF-7 cells to 4-HT treatment, it was assessed whether 4-HT induced inhibition of breast cancer cell proliferation and OGA-intein activation worked synergistically to accelerate cell death (FIG. 5A). […] Next, these two cell lines were treated with 4-HT at increasing concentrations, and cell viability was measured after 48 hours. […] Given that 4-HT promoted MCF-7 cell death through apoptosis (43), the apoptosis of these cells under 4-HT treatment was further analyzed through flow cytometry analyses following Annexin V and DAPI staining. […]
# [2] = system: Nup62-NLS; assay: Spatial deglycosylation of nuclear Nup62-NLS by OGA-intein(C181) variants in HEK293T cells; type: cell-based; conditions: nuclear Nup62-NLS co-expressed
# Description: (§1) Next, it was assessed whether these OGA-intein(C181) variants enable selective spatial deglycosylation in live cells. As O-GlcNAc affects the subcellular localization of many proteins (37), Nup62 was used as a model cytoplasmic substrate, which was previously primarily localized in the cytoplasm when transiently overexpressed in HEK293T cells independent of the O-GlcNAcylation state (13) (FIGS. 11A, 11B). Nup62 was co-expressed with three OGA-intein(C181) variants (C181-WT, C181-NLS, and C181-NES) in HEK293T cells, and Nup62 was enriched for O-GlcNAc measurement. […] Next, Nup62 was localized to the nucleus by attachment to an NLS tag (Nup62-NLS), and a similar coexpression and 4-HT-triggered activation was performed with OGA-intein(C181) variants. […] The fluorescent intensity of OGA-intein variants also show a strong correlation to the localization of Nup62, indicating the desired subcellular distribution (FIGS. 11A-C).
# (§2) Immunoprecipitation and Immunoblot assays. […]
# (§3) For immunoblotting analysis, proteins were transferred to a nitrocellulose membrane using an iBlot system (Invitrogen). […] Immunoblot images were captured using Azure Imager C600 and analyzed with Fiji ImageJ for converting all IR fluorescence western blot images to grayscale images.
# [3] = system: Nup62; assay: Spatial deglycosylation of cytoplasmic Nup62 by OGA-intein(C181) variants in HEK293T cells; type: cell-based; conditions: cytoplasmic Nup62 co-expressed
# Description: as §1, §2, §3
molecule,measurement,setting,value
B1,global O-GlcNAc level after adding 4-HT,[1],inactive form
B2,4-HT-induced deglycosylation of Nup62-NLS,[2],4-HT-induced deglycosylation
B3,removal of O-GlcNAc from Nup62 after 4-HT-triggered activation,[3],removed O-GlcNAc from Nup62
